Experimental data taken from patent US20030198640A1 (Human Genome Sciences, published 2003).

Columns and labels:
Assay in all cases: flow cytometry on transiently transfected cells
[1] = molecular target: T1, DcR1 on transiently transfected cells (UniProt O14798 26-236, limits assumed)
T1 construct: whole, on cells
T1 sequence (looked up): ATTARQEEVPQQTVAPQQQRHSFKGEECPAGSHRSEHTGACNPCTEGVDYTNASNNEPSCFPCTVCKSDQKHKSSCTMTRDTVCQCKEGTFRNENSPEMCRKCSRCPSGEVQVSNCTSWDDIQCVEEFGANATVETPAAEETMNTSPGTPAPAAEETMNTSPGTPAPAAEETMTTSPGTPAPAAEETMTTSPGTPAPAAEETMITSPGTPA
Procedure: (§1) One million cells, in 0.1 ml of FACS buffer (PBS, 0.1% BSA, 0.1% NaN₃), were incubated with 0.1-1 microgram of protein or antibody at RT for 15 min. The cells were washed with 3 ml of FACS buffer, reacted with biotinylated primary antibody, and stained with PE-conjugated secondary antibody at RT for 15 min. Cells were then washed again, resuspended in 0.5 microgram/ml of propidium iodide, and live cells were gated and analyzed on a FACScan using the CellQuest software (BD Biosciences).

[2] = molecular target: T2, DcR2 on transiently transfected cells (UniProt Q9UBN6 56-386, limits assumed)
T2 construct: whole, on cells
T2 sequence (looked up): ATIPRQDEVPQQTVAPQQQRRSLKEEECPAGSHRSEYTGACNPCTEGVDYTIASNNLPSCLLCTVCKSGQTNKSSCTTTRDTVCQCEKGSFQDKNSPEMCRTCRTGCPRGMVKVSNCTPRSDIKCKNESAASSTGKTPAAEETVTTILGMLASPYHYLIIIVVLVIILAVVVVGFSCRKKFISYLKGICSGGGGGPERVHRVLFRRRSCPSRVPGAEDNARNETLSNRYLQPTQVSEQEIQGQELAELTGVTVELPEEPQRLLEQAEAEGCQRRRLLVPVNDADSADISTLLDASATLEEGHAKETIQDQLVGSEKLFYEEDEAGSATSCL
Procedure: as §1

[3] = molecular target: T3, LT R (LTβR) on transiently transfected cells (UniProt P36941 31-435, limits assumed)
T3 construct: whole, on cells
Procedure: as §1

[4] = molecular target: T4, DR6 on transiently transfected cells (UniProt O75509 42-655, limits assumed)
T4 construct: whole, on cells
T4 sequence (looked up): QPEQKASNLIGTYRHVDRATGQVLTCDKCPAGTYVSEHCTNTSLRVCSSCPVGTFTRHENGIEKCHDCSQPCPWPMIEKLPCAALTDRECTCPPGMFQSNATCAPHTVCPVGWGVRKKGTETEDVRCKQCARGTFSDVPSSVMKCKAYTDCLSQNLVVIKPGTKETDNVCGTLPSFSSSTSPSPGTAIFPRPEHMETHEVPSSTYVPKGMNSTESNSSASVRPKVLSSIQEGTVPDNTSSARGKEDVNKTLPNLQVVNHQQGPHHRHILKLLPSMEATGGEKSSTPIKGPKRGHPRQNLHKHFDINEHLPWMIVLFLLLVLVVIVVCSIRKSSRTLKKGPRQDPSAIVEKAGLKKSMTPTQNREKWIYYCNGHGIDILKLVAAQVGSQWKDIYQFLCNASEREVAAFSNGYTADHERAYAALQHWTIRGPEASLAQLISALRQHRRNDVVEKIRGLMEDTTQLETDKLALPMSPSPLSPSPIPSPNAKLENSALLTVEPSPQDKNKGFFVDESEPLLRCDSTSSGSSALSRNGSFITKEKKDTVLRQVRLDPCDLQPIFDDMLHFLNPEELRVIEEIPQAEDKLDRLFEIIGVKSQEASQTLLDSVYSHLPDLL
Procedure: as §1

[5] = molecular target: T5, CD30 on transiently transfected cells (UniProt P28908 19-595, limits assumed)
T5 construct: whole, on cells
T5 sequence (looked up): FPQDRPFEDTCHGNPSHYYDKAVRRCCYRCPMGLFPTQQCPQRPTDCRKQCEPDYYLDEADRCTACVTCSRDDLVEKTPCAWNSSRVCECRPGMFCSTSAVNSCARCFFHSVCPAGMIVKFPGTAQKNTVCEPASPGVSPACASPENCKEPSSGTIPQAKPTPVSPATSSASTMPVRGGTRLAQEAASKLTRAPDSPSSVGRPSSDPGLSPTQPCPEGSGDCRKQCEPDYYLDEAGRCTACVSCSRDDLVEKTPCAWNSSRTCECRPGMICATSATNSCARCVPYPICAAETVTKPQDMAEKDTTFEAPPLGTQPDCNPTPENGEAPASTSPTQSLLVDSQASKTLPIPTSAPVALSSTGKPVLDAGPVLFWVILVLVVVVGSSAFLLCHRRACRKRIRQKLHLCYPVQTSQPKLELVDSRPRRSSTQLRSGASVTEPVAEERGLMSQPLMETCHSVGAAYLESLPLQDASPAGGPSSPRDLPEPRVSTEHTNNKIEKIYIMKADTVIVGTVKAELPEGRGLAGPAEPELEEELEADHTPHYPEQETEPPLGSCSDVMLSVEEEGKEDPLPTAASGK
Procedure: as §1

Measured: binding result

T3 sequence (P36941 31-435 limits assumed): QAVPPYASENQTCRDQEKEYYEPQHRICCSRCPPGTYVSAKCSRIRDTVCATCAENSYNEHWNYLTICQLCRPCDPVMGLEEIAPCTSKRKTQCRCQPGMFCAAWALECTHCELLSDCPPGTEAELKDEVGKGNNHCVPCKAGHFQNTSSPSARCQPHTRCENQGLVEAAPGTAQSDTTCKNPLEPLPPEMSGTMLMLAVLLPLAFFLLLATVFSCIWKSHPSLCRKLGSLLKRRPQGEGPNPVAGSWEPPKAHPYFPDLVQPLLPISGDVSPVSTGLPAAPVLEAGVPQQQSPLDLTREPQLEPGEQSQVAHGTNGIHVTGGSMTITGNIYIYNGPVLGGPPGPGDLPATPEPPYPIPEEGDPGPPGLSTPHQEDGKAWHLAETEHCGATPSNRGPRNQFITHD

B1: FLAG-tagged soluble form of TNF-gamma-beta (aa 72-251) (ligand)
chain: LKGQEFAPSHQQVYAPLRADGDKPRAHLTVVRQTPTQHFKNQFPALHWEHELGLAFTKNRMNYTNKFLLIPESGDYFIYSQVTFRGMTSECSEIRQAGRPNKPDSITVVITKVTDSYPEPTQLLMGTKSVCEVGSNWFQPIYLGAMFSLQEGDKLMVNVSDISLVDYTKEDKTFFGAFLL
notes: also called FLAG-TL1β; FLAG-TNF-gamma-beta; not shown: FLAG tag of the pFLAG-CMV-1 vector at the amino terminus
no binding: [1] | [2] | [3] | [4] | [5]
